In paper doi:10.1101/2022.03.26.485915 (bioRxiv, 2022):

Biological target: the molecule itself
Assay: in-vitro amyloid aggregation

B1: Envelope domain III (EDIII) protein of ZIKV (domain or fragment, Zika virus)
chain: MGVSYSLCTAAFTFTKIPAETLHGTVTVEVQYAGTDGPCKVPAQMAVDMQTLTPVGRLITANPVITESTENSKMMLELDPPFGDSYIVIGVGEKKITHHWHRSGSTIGKGQFYLNELE
B1: binds.
